Results published in PMC11109483.
pKd: −log10 of the molar value.

Molecular target: biotinylated HIP1 (22-309) (UniProt O00291)
Assay: SPR; Biacore T200, 25°C; biotinylated HIP1(22-309) immobilised on Sensor Chip NA (900 RU); Ub chains as analytes 60 nM to 250 uM, multicycle; 50 mM Hepes pH 7.5, 300 mM NaCl, 0.5 mM TCEP, 0.05% Tween-20, 1% BSA; steady-state affinity model

Chain of UniProt O00291 (O00291 22-309): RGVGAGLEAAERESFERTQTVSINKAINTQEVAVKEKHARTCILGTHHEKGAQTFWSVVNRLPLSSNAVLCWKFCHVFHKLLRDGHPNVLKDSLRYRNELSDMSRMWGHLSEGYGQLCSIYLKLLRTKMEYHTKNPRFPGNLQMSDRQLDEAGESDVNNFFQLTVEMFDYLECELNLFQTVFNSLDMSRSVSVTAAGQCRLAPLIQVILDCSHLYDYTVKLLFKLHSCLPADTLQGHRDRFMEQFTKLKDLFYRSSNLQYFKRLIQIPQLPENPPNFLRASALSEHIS

Row | Substance | pKd
1 | K63-linked Ub3 (from UniProt P0CG48 1-76; P0CG48 1-76) | 5.81
2 | K63-linked Ub2 (from UniProt P0CG48 1-76; P0CG48 1-76) | 5.72
3 | K48-linked Ub3 (from UniProt P0CG48 1-76; P0CG48 1-76) | 4.18
4 | K48-linked Ub2 (from UniProt P0CG48 1-76; P0CG48 1-76) | 3.86
